Experimental data as given in patent US20210054097A1 (Novo Nordisk, published 2021).
Ends that are not written are not given here.

T1: FX activation peptide 12-mer DPTENPFDLLDF (human)
T1 peptide: DPTENPFDLLDF-biotin

T2: FX activation peptide 12-mer DLDPTENPFDLL (human)
T2 peptide: DLDPTENPFDLL-biotin

T3: FX activation peptide 12-mer ENPFDLLDFNQT (human)
T3 peptide: ENPFDLLDFNQT-biotin

T4: FX activation peptide 12-mer SGEAPDSITWKP (human)
T4 peptide: SGEAPDSITWKP-biotin

T5: FX activation peptide 12-mer QTQPERGDNNLT (human)
T5 peptide: QTQPERGDNNLT-biotin

T6: FX activation peptide 12-mer YDAADLDPTENP (human)
T6 peptide: YDAADLDPTENP-biotin

T7: FX activation peptide 12-mer QATSSSGEAPDS (human)
T7 peptide: QATSSSGEAPDS-biotin

T8: FX activation peptide 12-mer PTENPFDLLDFN (human)
T8 peptide: PTENPFDLLDFN-biotin

T9: FX activation peptide 12-mer LLDFNQTQPERG (human)
T9 peptide: LLDFNQTQPERG-biotin

T10: FX activation peptide 12-mer PFDLLDFNQTQP (human)
T10 peptide: PFDLLDFNQTQP-biotin

B1: Nb 729A04 (VHH)
VHH: EVQLVESGGGVVQPGGSLRLSCAASGFTFSDYAMSWVRQAPGKGLEWVSGITSGGGRTYYADSVKGRFTISRDNSKNTLYLQMNSLRPEDTALYYCAAVRTLGLRGSYDYWGQGTLVTVSS
notes: monovalent Nanobody; not shown: C-terminal FLAG3 and HIS6 tag
B2: Nb 730C03 (VHH)
VHH: EVQLVESGGGVVQPGGSLRLSCVASGFTFSDYAMSWVRQAPGKGLEWVSGITSGSGRTYYADSVKGRFTISRDNSKNTVYLQMNSLRPEDTALYYCAAAILRGYRKTYDYWGQGTLVTVSS
notes: monovalent Nanobody; also called Nb 730003; not shown: C-terminal FLAG3 and HIS6 tag
B3: Nb 701C06 (VHH)
VHH: EVQLVESGGGVVQPGGSLRLSCAASGRTFSTYAMGWFRQAPGKEREFVAAISRRGGRTYYADSVKGRFTISRDNSKNTVYLQMNSLRPEDTALYYCAADATARDGLLDYWGQGTLVTVSS
notes: as for B1
B4: Nb 701B09 (VHH)
VHH: EVQLVESGGGVVQPGGSLRLSCAASGRTFSTYAMGWFRQAPGKEREFVAAISWSGSRTYYADSVKGRFTISRDNSKNTVYLQMNSLRPEDTALYYCAADATPANGELDYWGQGTLVTVSS
notes: monovalent Nanobody; also called Nb 701609; not shown: C-terminal FLAG3 and HIS6 tag
B5: Nb 701D07 (VHH)
VHH: EVQLVESGGGVVQPGGSLRLSCAASGGTLSRYAMGWFRQAPGKEREFVAAITRRGSRTYYADSVKGRFTISRDNSKNTVYLQMNSLRPEDTALYYCAADLAPGDYALDYWGQGTLVTVSS
notes: as for B1
B6: Nb 702C12 (VHH)
VHH: EVQLVESGGGVVQPGGSLRLSCVASGRTFSRYAMGWFRQAPGKEREFVAAISRRGGSTNYADSVKGRFTISRDNSKNTVYLQMNSLRPEDTALYYCAADYSSGDGYLDYWGQGTLVTVSS
notes: as for B1
B7: Nb 729C08 (VHH)
VHH: EVQLVESGGGVVQPGGSLRLSCAASGFTFSDYAMSWVRQAPGKGLEWVSGITGGGRTYYADSVKGRFTISRDNSKNTLYLQMNSLRPEDTALYYCAAAILTRTRRTYDYWGQGTLVTVSS
notes: monovalent Nanobody; also called Nb 729008; not shown: C-terminal FLAG3 and HIS6 tag
B8: Nb 501A02 (VHH)
VHH: EVQLVESGGGLVQPGGSLRLSCAASGFTFSNYEMSWVRQAPGKGLEWVSDIGSGGGVSTYYADSVKGRFTISRDNAKNTLYLQMNSLKPEDTAMYYCARGWTYGSDGMDYWGKGTLVTVSS
notes: monovalent control Nanobody; also called control Nanobody; not shown: C-terminal FLAG3 and HIS6 tag

Assays:
[1] = target: T1, FX activation peptide 12-mer …; experiment: peptide ELISA
How it was run: (§1)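 Nanobodies (FLAG-tagged) or IgG antibodies, 2 μg/mL, incubated 1 h on C-terminally biotinylated peptide captured via streptavidin, washing buffer pH 8.60 containing CaCl₂ and Tween 20. Read-out: HRP-conjugated secondary antibody with TMB colour development.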

[2] = target: T2, FX activation peptide 12-mer …; experiment: peptide ELISA
How it was run: as §1

[3] = target: T3, FX activation peptide 12-mer …; experiment: peptide ELISA
How it was run: as §1

[4] = target: T4, FX activation peptide 12-mer …; experiment: peptide ELISA
How it was run: as §1

[5] = target: T5, FX activation peptide 12-mer …; experiment: peptide ELISA
How it was run: as §1

[6] = target: T6, FX activation peptide 12-mer …; experiment: peptide ELISA
How it was run: as §1

[7] = target: T7, FX activation peptide 12-mer …; experiment: peptide ELISA
How it was run: as §1

[8] = target: T8, FX activation peptide 12-mer …; experiment: peptide ELISA
How it was run: as §1

[9] = target: T9, FX activation peptide 12-mer …; experiment: peptide ELISA
How it was run: as §1

[10] = target: T11, human plasma-derived Factor X zymogen (human, UniProt P00742 41-179; P00742 183-488); experiment: apparent KD fitted from FXa generation assay
T11 construct: Plasma-derived, bought (Haematologic Technologies); also called FX; human FX
Protocol: The ability of the monovalent anti-FX Nanobody® (Nb) to promote FIXa-mediated FX-activation was determined in the presence of a procoagulant phospholipid membrane according to the principles described by Scheiflinger et al. (2008) J Thromb Haemost, 6:315-322. A Fab of mAb 13F62 (IgG1 isotype, variable sequences identified by SEQ ID NO:6 and 7), also found to bind the activation peptide, were included for comparison. Moreover, anti-FX antibodies as disclosed in U.S. Pat. No. 9,334,331 (J327 and L404-k in said publication), corresponding to the anti-FX arm of ACE910); and more recently in WO2018/021450 (J327 D31H and JYL280 in said publication) and WO2018/098363 (BIIB-12-917 represented by SEQ ID NO:427 and 615 in said publication) are stated to be suitable for use as part of anti-FIX/anti-FX bispecific FVIII mimetic compounds were, furthermore, included for comparison.
Each compound was tested individually in a concentration range from 0-1000 nM, 0-2000 nM, 0-4000 nM or 0-8000 nM by pre-incubation with 1-1.5 nM human plasma-derived FIXa (Haematologic Technologies Inc, USA) and 500 μM 25:75 phosphatidyl serine:phosphatidyl choline phospholipid vesicles (Haematologic Technologies Inc, USA) in assay buffer (50 mM HEPES, 100 mM NaCl, 5 mM CaCl₂, 0.1% (w/v) PEG8000, 1 mg/mL bovine serum albumin, pH 7.3) for 10 minutes. The reaction was initiated by addition of human plasma-derived FX (Haematologic Technologies Inc, USA) to a final concentration of 100 nM and a reaction volume of 50 μL. Following 20 minutes activation at room temperature while agitated (1000 RPM), the reaction was quenched by addition of 25 μL quench buffer (50 mM HEPES, 100 mM NaCl, 60 mM EDTA, 0.1% (w/v) PEG8000, 1 mg/mL bovine serum albumin, pH 7.3). The amount of FXa generated was determined by addition of 25 μL 2 mM S-2765 chromogenic substrate for FXa (Chromogenix, Sweden) and chromogenic substrate conversion was followed by measuring absorbance at 405 nm for 10 minutes in a microplate reader. The observed change in 405 nm absorbance (ΔAbs405/min) was fitted to the quadratic binding equation (eq. 1) to obtain the peak stimulatory activity and EC50.

human activated Factor X = human activated Factor X (human, UniProt P00742 41-179; P00742 235-488); experiment: cell-based or functional assay
[11] = target: T10, FX activation peptide 12-mer …; experiment: peptide ELISA
How it was run: as §1

human activated Factor X, sequence (P00742 41-179, chain 1 of 2): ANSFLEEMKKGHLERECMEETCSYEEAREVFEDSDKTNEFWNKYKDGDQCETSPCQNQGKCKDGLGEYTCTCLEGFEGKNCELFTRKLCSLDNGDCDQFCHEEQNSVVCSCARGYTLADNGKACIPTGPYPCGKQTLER
human activated Factor X, sequence (P00742 235-488, chain 2 of 2): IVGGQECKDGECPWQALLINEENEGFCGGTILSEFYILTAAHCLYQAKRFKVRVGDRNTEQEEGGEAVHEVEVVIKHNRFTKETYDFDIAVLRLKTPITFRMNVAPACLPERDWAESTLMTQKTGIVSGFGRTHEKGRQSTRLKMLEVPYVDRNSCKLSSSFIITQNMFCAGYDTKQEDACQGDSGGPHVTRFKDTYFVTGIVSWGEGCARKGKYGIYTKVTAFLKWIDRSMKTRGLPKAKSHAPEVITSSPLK
T11 sequence (P00742 41-179, chain 1 of 2): as the sequence (P00742 41-179, chain 1 of 2) above
T11 sequence (P00742 183-488, chain 2 of 2): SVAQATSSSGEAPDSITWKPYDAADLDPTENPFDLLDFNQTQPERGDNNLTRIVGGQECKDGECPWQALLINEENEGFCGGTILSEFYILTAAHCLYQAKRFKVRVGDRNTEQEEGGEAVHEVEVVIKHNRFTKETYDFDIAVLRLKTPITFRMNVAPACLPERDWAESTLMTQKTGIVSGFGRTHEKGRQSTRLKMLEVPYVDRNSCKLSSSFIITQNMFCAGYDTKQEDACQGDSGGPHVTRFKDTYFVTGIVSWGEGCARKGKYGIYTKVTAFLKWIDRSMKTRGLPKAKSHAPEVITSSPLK

Binder	ELISA signal relative to background [1]	ELISA signal relative to background [2]	ELISA signal relative to background [3]	ELISA signal relative to background [4]	ELISA signal relative to background [5]	ELISA signal relative to background [6]	ELISA signal relative to background [7]	ELISA signal relative to background [8]	ELISA signal relative to background [9]	Kd [10] [nM]	FXa amidolytic activity (relative to free FXa, fold) (human activated Factor X) [fold]	ELISA signal relative to background [11]	other results
B1	4.03	1.06	17.8	0.98	1.11	1.06	1.08	5.18	1.1	83.2	1.11	–	–
B2	–	1.26	6.57	1.18	1.1	1.28	1.14	–	1.1	63.9	1.01	1.23	–
B3	–	0.88	–	0.88	0.93	0.85	0.94	–	1.03	41.9	1.06	–	–
B4	2.87	0.82	3.43	0.84	0.72	0.81	0.77	3.91	1.09	72.3	1.06	3.48	–
B5	–	0.74	–	0.78	0.79	0.75	0.81	–	0.8	66.1	1.05	–	–
B6	4.16	1	4	0.88	0.88	0.87	0.96	4.58	–	75.4	1.05	4.95	–
B7	–	1.21	8.06	1.07	1.04	1.09	1.12	2.06	1.13	~1400	1.09	1.18	–
B8	0.88	0.79	0.82	0.76	0.76	0.71	0.82	0.88	0.79	802	–	0.79	binding result [1]: no binding (tested: 2 µg/mL); binding result [2]: no binding (tested: 2 µg/mL); binding result [3]: no binding (tested: 2 µg/mL); binding result [4]: no binding (tested: 2 µg/mL); binding result [5]: no binding (tested: 2 µg/mL); binding result [6]: no binding (tested: 2 µg/mL); binding result [7]: no binding (tested: 2 µg/mL); binding result [11]: no binding (tested: 2 µg/mL); binding result [8]: no binding (tested: 2 µg/mL); binding result [9]: no binding (tested: 2 µg/mL)
